Results published in patent publication US12479928B2, “Anti-cancer peptide” (Minerva Biotechnologies Corporation, priority 2014, dated 2025).

Key:
[1] = tested on: DU145 prostate cancer cells; test: RT-PCR of CSC markers after culture in NME7-AB, DU145; format: cell-based, human
Description: FIG. 13 is a graph of RT-PCR measurements of gene expression for a variety of stem and putative cancer stem cell markers for DU145 prostate cancer cells. Cells were cultured either in traditional media or a media containing NME1 dimers (“NM23”) or NME7 (NME7-AB). Rho kinase inhibitor was not used because by passage 2, cells remained adherent.
(§1) Ovarian cancer cells, pancreatic cancer cells and melanoma cells were also cultured in NME7-AB and were transformed to a more metastatic state after as few as 3 days in culture.

[2] = biological target: T1, PSMGFR peptide (MUC1* extracellular domain) (Homo sapiens, UniProt P15941); test: Sandwich ELISA: NME7-AB dimerizes MUC1* extra cellular domain peptide; format: binding
T1 construct: The PSMGFR peptide bearing a C-terminal Cysteine (PSMGFR-Cys) was covalently coupled to BSA; made in house; host or cells: E. coli (NME7-AB)
T1 sequence (P15941 1110-1154 limits assumed) 1: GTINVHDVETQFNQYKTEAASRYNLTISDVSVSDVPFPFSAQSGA
T1 sequence (Q9Y5B8 92-376 partner limits assumed): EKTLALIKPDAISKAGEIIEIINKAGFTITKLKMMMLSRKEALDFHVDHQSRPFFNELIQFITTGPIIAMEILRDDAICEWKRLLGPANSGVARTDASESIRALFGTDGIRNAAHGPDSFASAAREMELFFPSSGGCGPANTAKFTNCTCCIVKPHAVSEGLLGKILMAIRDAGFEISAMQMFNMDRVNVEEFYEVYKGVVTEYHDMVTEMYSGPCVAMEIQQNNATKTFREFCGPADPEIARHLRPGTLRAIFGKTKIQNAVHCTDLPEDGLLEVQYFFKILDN
T1 sequence (P15941 1110-1154 limits assumed) 3: T1 sequence (P15941 1110-1154 limits assumed) 1
Description: The PSMGFR peptide bearing a C-terminal Cysteine (PSMGFR-Cys) was covalently coupled to BSA using Imject Maleimide activated BSA kit (Thermo Fisher). PSMGFR-Cys coupled BSA was diluted to 10 ug/mL in 0.1M carbonate/bicarbonate buffer pH 9.6 and 50 uL was added to each well of a 96 well plate. After overnight incubation at 4° C., the plate was washed twice with PBS-T and a 3% BSA solution was added to block remaining binding site on the well. After 1 h at RT the plate was washed twice with PBS-T and NME7, diluted in PBS-T+1% BSA, was added at different concentrations. After 1 h at RT the plate was washed 3× with PBS-T and anti-NM23-H7 (B-9, Santa Cruz Biotechnology), diluted in PBS-T+1% BSA, was added at 1/500 dilution. […] After 1 h at RT the plate was washed 3× with PBS-T and binding of NME7 was measured at 415 nm using ABTS solution (Pierce). […]
After 1 h at RT the plate was washed 3× with PBS-T and HisTagged PSMGFR peptide (PSMGFR-His) or biotinylated PSMGFR peptide (PSMGFR-biotin), diluted in PBS-T+1% BSA, was added at different concentration. […] After 1 h at RT the plate was washed 3× with PBS-T and binding of PSMGFR peptide to NME7 already bound to another PSMGFR peptide (which could not signal by anti-His antibody or by streptavidin) coupled BSA was measured at 415 nm using a ABTS solution (Pierce).

[3] = tested on: MDA-MB breast cancer cell line; test: RT-PCR of metastatic markers after culture in NME7-AB, MDA-MB; format: cell-based, human; details: serum-free media containing NME7-AB
Description: FIGS. 37A-37C show graphs of RT-PCR measurements of metastatic markers in cancer cells after being cultured in a serum-free media containing NME7-AB compared to the standard media.
as §1

[4] = tested on: Human stem cells (iPS cat #SC101a-1); test: Human stem cell growth and pluripotency in NME7-AB or NM23-H1 dimers; format: cell-based; details: for pluripotent stem cell growth / differentiation: 8 nM in Minimal Stem Cell Media
Description: For testing recombinant NME7-AB for ability to maintain pluripotency and inhibit differentiation, a soluble variant of NME7, NME7-AB, was generated and purified. Human stem cells (iPS cat #SC101a-1, System Biosciences) were grown per the manufacturer's directions in 4 ng/ml bFGF over a layer of mouse fibroblast feeder cells for four passages. These source stem cells were then plated into 6-well cell culture plates (Vita™, Thermo Fisher) that had been coated with 12.5 ug/well of a monoclonal anti-MUC1* antibody, MN-C3. Cells were plated at a density of 300,000 cells per well. The base media was Minimal Stem Cell Media consisting of: 400 ml DME/F12/GlutaMAX I (Invitrogen #10565-018), 100 ml Knockout Serum Replacement (KO-SR, Invitrogen #10828-028), 5 ml 100×MEM Non-essential Amino Acid Solution (Invitrogen #11140-050) and 0.9 ml (0.1 mM) β-mercaptoethanol (55 mM stock, Invitrogen #21985-023). The base media can be any media. In a preferred embodiment, the base media is free of other growth factors and cytokines. To the base media was added either 8 nM of NME7-AB or 8 nM NM23-H1 refolded and purified as stable dimers. Media was changed every 48 hours and due to accelerated growth, had to be harvested and passaged at Day 3 post-plating.
Cell counts at the first harvest verified that culture in NME7 produced 1.4-times more cells than culture in NM23-H1 dimers.

B1: NME7-AB: recombinant human NME7 devoid of the DM10 domain, NDPK A and B domains, about 33 kDa monomer (protein)
chain: MEKTLALIKPDAISKAGEIIEIINKAGFTITKLKMMMLSRKEALDFHVDHQSRPFFNELIQFITTGPIIAMEILRDDAICEWKRLLGPANSGVARTDASESIRALFGTDGIRNAAHGPDSFASAAREMELFFPSSGGCGPANTAKFTNCTCCIVKPHAVSEGLLGKILMAIRDAGFEISAMQMFNMDRVNVEEFYEVYKGVVTEYHDMVTEMYSGPCVAMEIQQNNATKTFREFCGPADPEIARHLRPGTLRAIFGKTKIQNAVHCTDLPEDGLLEVQYFFKILDN
- CSC marker expression after culture in NME7-AB [1]: dramatic increases in expression of CSC markers
- simultaneous binding of PSMGFR peptides [2]: simultaneously binds to two PSMGFR peptides
- metastatic marker expression after culture in NME7-AB [3]: increased expression of metastatic markers CDH1 aka E-cadherin and SOX2
- pluripotent stem cell growth / differentiation [4]: fully supported human stem cell growth, pluripotency, and resisted differentiation
- pluripotent stem cell growth / differentiation ([4]; listed as NME7): no differentiation even when 100% confluent
- cell number relative to culture in NM23-H1 dimers ([4]; 8 nM, cell counts at first harvest): 1.4 times
